What is called Kd is the free concentration of one partner at which half of the binding sites on the other are occupied at equilibrium, for simple one-to-one binding.

Here are results for three molecules from paper PMC10164577, “CAF-1 deposits newly synthesized histones during DNA replication using distinct mechanisms on the leading and lagging strands” (Nucleic Acids Research, 2022).

Substitutions are numbered along the chain they refer to. Names may count otherwise.

Holding throughout (conditions): both partners purified
Experiment [1] concerns the target T1, Chromatin Assembly Factor-1 (CAF-1), wild type (yeast, UniProt Q12495 1-606; Q04199 1-468; P13712 1-422).
T1 construct: Cac1, large subunit of yeast CAF-1; Cac2, subunit of yeast CAF-1; Cac3, subunit of yeast CAF-1; Heterotrimer Cac1-Cac2-Cac3; also called WT CAF-1; copies: + +
The experiment can be described thus: SEC; PCNA (30 μM) loaded on nicked pUC19 (0.3 μM) by RFCΔN (0.5 μM) with 10 mM MgCl2 and 3 mM ATP, then CAF-1 (5 μM), 15 min room temperature; Superose 6 increase 3.2/300 in 50 mM HEPES pH 7.5, 200 mM NaCl, 0.01% IGEPAL, 1 mM TCEP, 10 mM MgCl2; fractions on SDS-PAGE. On the technique in general: Size exclusion chromatography separates by hydrodynamic size, large species first.

The target of experiment [2] is T2, Clamp loader RFC (RFC1-5), full-length (yeast, UniProt P38630 1-861; P40348 1-353; P38629 1-340; P40339 1-323; P38251 1-354).
T2 construct: Rfc1, yeast replication factor C subunit 1; Rfc2, yeast replication factor C subunit 2; Rfc3, yeast replication factor C subunit 3; Rfc4, yeast replication factor C subunit 4; Rfc5, yeast replication factor C subunit 5; also called full-length RFC; copies: + + + +
In words: cross-linking; limiting PCNA: 50 nM AF546-PCNA K164C loaded on nicked pUC19 (15 nM) by full-length RFC (15 nM), CAF-1 titrated 0-1 μM, 100-110 mM NaCl; 0.2% glutaraldehyde; nuclease digestion; SDS-PAGE, PCNA fluorescence, band intensities; affinities estimated.

The target of experiment [3] is T1, Chromatin Assembly Factor-1 (CAF-1), …. The description is as above.
For experiment [4], the target named is Histones H3–H4 (H3 C110A-H4 E63C), Alexa488-labeled (Xenopus laevis, maleimide AlexaFluor-488 on E63C). In words: fluorescence polarisation; 10 nM Alexa488-labeled H3–H4 with increasing CAF-1, Polϵ, Polδ or RPA; 25 mM TRIS pH 7.5, 300 mM NaCl, 5% glycerol, 1 mM EDTA, 0.01% IGEPAL, 0.01% CHAPS, 1 mM DTT; one site binding curve. Background: Fluorescence polarisation rises when a labelled molecule tumbles more slowly, as on binding a larger partner.

B1: Proliferating Cell Nuclear Antigen (PCNA), wild type (natural protein, yeast, UniProt P15873 1-258, looked up)
chain: MLEAKFEEASLFKRIIDGFKDCVQLVNFQCKEDGIIAQAVDDSRVLLVSLEIGVEAFQEYRCDHPVTLGMDLTSLSKILRCGNNTDTLTLIADNTPDSIILLFEDTKKDRIAEYSLKLMDIDADFLKIEELQYDSTLSLPSSEFSKIVRDLSQLSDSINIMITKETIKFVADGDIGSGSVIIKPFVDMEHPETSIKLEMDQPVDLTFGAKYLLDIIKGSSLSDRVGIRLSSEAPALFQFDLKSGFLQFFLAPKFNDEE
notes: PCNA, yeast; homotrimeric clamp; In the SEC experiments loaded onto nicked pUC19 by RFCΔN and ATP
In the case of B1, the binding result in experiment [1] is “binds”.

B2: PCNA K164C, labeled with Alexa Fluor 546 (natural protein, yeast, UniProt P15873 1-258, looked up)
chain: B1 chain with K164C
modifications: labeled with Alexa Fluor 546
notes: PCNA, yeast, K164C; also called fluorescently labeled PCNA; source: made by standard mutagenesis, purified following the wild-type protocol
On to B2, for which the binding result in experiment [2] is “binds”. In experiment [3], the Kd is about 100 nM.

B3: DNA polymerase delta (Polδ) (complex)
chain 1: MSEKRSLPMVDVKIDDEDTPQLEKKIKRQSIDHGVGSEPVSTIEIIPSDSFRKYNSQGFKAKDTDLMGTQLESTFEQELSQMEHDMADQEEHDLSSFERKKLPTDFDPSLYDISFQQIDAEQSVLNGIKDENTSTVVRFFGVTSEGHSVLCNVTGFKNYLYVPAPNSSDANDQEQINKFVHYLNETFDHAIDSIEVVSKQSIWGYSGDTKLPFWKIYVTYPHMVNKLRTAFERGHLSFNSWFSNGTTTYDNIAYTLRLMVDCGIVGMSWITLPKGKYSMIEPNNRVSSCQLEVSINYRNLIAHPAEGDWSHTAPLRIMSFDIECAGRIGVFPEPEYDPVIQIANVVSIAGAKKPFIRNVFTLNTCSPITGSMIFSHATEEEMLSNWRNFIIKVDPDVIIGYNTTNFDIPYLLNRAKALKVNDFPYFGRLKTVKQEIKESVFSSKAYGTRETKNVNIDGRLQLDLLQFIQREYKLRSYTLNAVSAHFLGEQKEDVHYSIISDLQNGDSETRRRLAVYCLKDAYLPLRLMEKLMALVNYTEMARVTGVPFSYLLARGQQIKVVSQLFRKCLEIDTVIPNMQSQASDDQYEGATVIEPIRGYYDVPIATLDFNSLYPSIMMAHNLCYTTLCNKATVERLNLKIDEDYVITPNGDYFVTTKRRRGILPIILDELISARKRAKKDLRDEKDPFKRDVLNGRQLALKISANSVYGFTGATVGKLPCLAISSSVTAYGRTMILKTKTAVQEKYCIKNGYKHDAVVVYGDTDSVMVKFGTTDLKEAMDLGTEAAKYVSTLFKHPINLEFEKAYFPYLLINKKRYAGLFWTNPDKFDKLDQKGLASVRRDSCSLVSIVMNKVLKKILIERNVDGALAFVRETINDILHNRVDISKLIISKTLAPNYTNPQPHAVLAERMKRREGVGPNVGDRVDYVIIGGNDKLYNRAEDPLFVLENNIQVDSRYYLTNQLQNPIISIVAPIIGDKQANGMFVVKSIKINTGSQKGGLMSFIKKVEACKSCKGPLRKGEGPLCSNCLARSGELYIKALYDVRDLEEKYSRLWTQCQRCAGNLHSEVLCSNKNCDIFYMRVKVKKELQEKVEQLSKW
chain 2: MDALLTKFNEDRSLQDENLSQPRTRVRIVDDNLYNKSNPFQLCYKKRDYGSQYYHIYQYRLKTFRERVLKECDKRWDAGFTLNGQLVLKKDKVLDIQGNQPCWCVGSIYCEMKYKPNVLDEVINDTYGAPDLTKSYTDKEGGSDEIMLEDESGRVLLVGDFIRSTPFITGVVVGILGMEAEAGTFQVLDICYPTPLPQNPFPAPIATCPTRGKIALVSGLNLNNTSPDRLLRLEILREFLMGRINNKIDDISLIGRLLICGNSVDFDIKSVNKDELMISLTEFSKFLHNILPSISVDIMPGTNDPSDKSLPQQPFHKSLFDKSLESYFNGSNKEILNLVTNPYEFSYNGVDVLAVSGKNINDICKYVIPSNDNGESENKVEEGESNDFKDDIEHRLDLMECTMKWQNIAPTAPDTLWCYPYTDKDPFVLDKWPHVYIVANQPYFGTRVVEIGGKNIKIISVPEFSSTGMIILLDLETLEAETVKIDI
chain 3: MDQKASYFINEKLFTEVKPVLFTDLIHHLKIGPSMAKKLMFDYYKQTTNAKYNCVVICCYKDQTIKIIHDLSNIPQQDSIIDCFIYAFNPMDSFIPYYDIIDQKDCLTIKNSYELKVSESSKIIERTKTLEEKSKPLVRPTARSKTTPEETTGRKSKSKDMGLRSTALLAKMKKDRDDKETSRQNELRKRKEENLQKINKQNPEREAQMKELNNLFVEDDLDTEEVNGGSKPNSPKETDSNDKDKNNDDLEDLLETTAEDSLMDVPKIQQTKPSETEHSKEPKSEEEPSSFIDEDGYIVTKRPATSTPPRKPSPVVKRALSSSKKQETPSSNKRLKKQGTLESFFKRKAK
B3 registered a Kd in experiment [4] of at least 300 nM.
